Patent EP4552657A1, “RADIOPHARMACEUTICAL COMPLEXES AND COMBINATIONS” (priority 2023, dated 2025)

T1: human recombinant DLL3 antigen (Homo sapiens, UniProt Q9NYJ7)
T1 sequence (Q9NYJ7 27-618): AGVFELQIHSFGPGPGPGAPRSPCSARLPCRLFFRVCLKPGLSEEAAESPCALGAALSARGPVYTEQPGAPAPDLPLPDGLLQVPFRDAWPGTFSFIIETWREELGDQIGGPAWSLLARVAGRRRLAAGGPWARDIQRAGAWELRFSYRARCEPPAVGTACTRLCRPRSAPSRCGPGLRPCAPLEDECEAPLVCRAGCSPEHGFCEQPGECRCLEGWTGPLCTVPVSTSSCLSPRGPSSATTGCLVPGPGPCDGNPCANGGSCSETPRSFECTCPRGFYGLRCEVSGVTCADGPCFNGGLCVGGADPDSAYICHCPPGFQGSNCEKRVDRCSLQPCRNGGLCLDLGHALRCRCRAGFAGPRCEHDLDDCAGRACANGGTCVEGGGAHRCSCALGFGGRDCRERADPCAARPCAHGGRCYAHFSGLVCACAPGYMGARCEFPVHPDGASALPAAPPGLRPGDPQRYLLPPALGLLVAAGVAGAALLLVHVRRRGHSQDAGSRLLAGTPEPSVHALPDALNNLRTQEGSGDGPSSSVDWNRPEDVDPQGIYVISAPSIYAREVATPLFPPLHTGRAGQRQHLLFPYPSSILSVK

T2: recombinant human DLL3 (Homo sapiens, UniProt Q9NYJ7)
T2 sequence (Q9NYJ7 27-618): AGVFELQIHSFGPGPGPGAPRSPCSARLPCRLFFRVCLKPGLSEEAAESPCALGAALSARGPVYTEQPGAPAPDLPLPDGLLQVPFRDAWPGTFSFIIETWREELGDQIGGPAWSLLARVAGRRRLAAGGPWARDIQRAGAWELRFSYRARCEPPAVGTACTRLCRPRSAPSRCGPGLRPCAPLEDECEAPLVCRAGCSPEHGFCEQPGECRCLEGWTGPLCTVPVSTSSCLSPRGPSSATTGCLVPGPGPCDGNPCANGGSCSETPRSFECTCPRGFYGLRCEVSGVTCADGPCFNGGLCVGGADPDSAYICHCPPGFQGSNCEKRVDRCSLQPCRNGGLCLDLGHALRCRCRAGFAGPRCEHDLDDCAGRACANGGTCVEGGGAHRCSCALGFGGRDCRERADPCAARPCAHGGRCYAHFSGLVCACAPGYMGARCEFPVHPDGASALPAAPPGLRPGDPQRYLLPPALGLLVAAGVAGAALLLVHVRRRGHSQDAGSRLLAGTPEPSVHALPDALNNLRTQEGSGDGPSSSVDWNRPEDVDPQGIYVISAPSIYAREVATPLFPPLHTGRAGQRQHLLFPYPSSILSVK


Legend:
[1] = target: T1, human recombinant DLL3 antigen; assay: ELISA, binding potency to human recombinant DLL3 antigen; details: compared to unconjugated Rovalpituzumab
Method: The relevant antigen was immobilized on ELISA plate by absorption. The plate was washed (PBS with 0.1% Tween 20) and incubated with blocking buffer (PBS + 3% BSA) for 2 h ± 1 h to reduce unspecific binding. Relevant antibodies and ACCs diluted in assay buffer (PBS with 0.05% Tween 20 + 1.5% BSA). The blocking buffer was discarded, and the antibodies and ACCs and controls were applied in triplicates to the plate according to a plate set-up defined in each protocol. After incubation for 1 h ± 30 min at RT, the plate was washed. A horse radish peroxidase (HRP)-conjugated secondary antibody binding specifically to the primary mAb (anti-human IgG-HRP) was added to the plate. After incubation for 1 hour ± 30 min at RT, the plate was washed. A chromogenic substrate (2,2'-azino-bis (3-ethylbenzothiazoline-6-sulphonic acid) (ABTS)), for HRP leading to the formation of a green color was added to the plate and used for detection. The absorbance of the colored reaction product was measured with an absorbance plate reader, e.g. EnVision 2103 Multilabel Reader from Perkin Elmer, or iMark Microplate Absorbance Reader from Bio-Rad.
Absorbance against the log of the antibody concentration was plotted on the GraphPad Prism software.
The binding potency of Rovalpituzumab-macropa, Rovalpituzumab-DOTA was compared to unconjugated Rovalpituzumab by using an ELISA assay. […]

recombinant human DLL3 = target: T2, recombinant human DLL3; assay: Immunoreactive fraction (IRF), binding to DLL3-coated beads; details: 20 kBq/µg
Method: Shortly after completion of the radiolabeling, the binding was assessed by measuring the fraction of radiolabeled antibody-chelator conjugate bound to relevant antigen coated magnetic beads (Thermo Fisher Scientific). In short, beads were placed in 2 mL Eppendorf tubes in 90 µL buffer (PBS/0.1% Tween 20/1% BSA). The radiolabeled compounds were diluted to 5 Bq/µL in buffer and 50 Bq were added to each bead-containing tube. The binding lasted for 60 min while shaking at 750 rpm at room temperature. After completion of the binding step, magnet (DynaMag-2) was used to separate the beads from […] supernatant. The radio activities in the supernatant and in the beads of each sample were measured using a high purity Germanium detector (Ortec). […] Total binding was defined as [(activity in beads […])/ (total activity)] × 100.

| Molecule | EC50 [1] | max absorbance value [1] | amount of DLL3-coated beads at which the maximum binding was achieved (recombinant human DLL3) [µg] | maximum binding (IRF) (recombinant human DLL3; 10 µg of DLL3-coated beads) [%] |
| --- | --- | --- | --- | --- |
| Rovalpituzumab-DOTA (conjugate, chains of the INN, looked up, DOTA chelator conjugate) VH: QVQLVQSGAEVKKPGASVKVSCKASGYTFTNYGMNWVRQAPGQGLEWMGWINTYTGEPTYADDFKGRVTMTTDTSTSTAYMELRSLRSDDTAVYYCARIGDSSPSDYWGQGTLVTVSS VL: EIVMTQSPATLSVSPGERATLSCKASQSVSNDVVWYQQKPGQAPRLLIYYASNRYTGIPARFSGSGSGTEFTLTISSLQSEDFAVYYCQQDYTSPWTFGQGTKLEIK | increased EC50 | Slightly lower max absorbance value |  |  |
| Ac-225-macropa-Rovalpituzumab (conjugate, chains of the INN, looked up, macropa chelator, actinium-225) VH: QVQLVQSGAEVKKPGASVKVSCKASGYTFTNYGMNWVRQAPGQGLEWMGWINTYTGEPTYADDFKGRVTMTTDTSTSTAYMELRSLRSDDTAVYYCARIGDSSPSDYWGQGTLVTVSS VL: EIVMTQSPATLSVSPGERATLSCKASQSVSNDVVWYQQKPGQAPRLLIYYASNRYTGIPARFSGSGSGTEFTLTISSLQSEDFAVYYCQQDYTSPWTFGQGTKLEIK |  |  | 10 | 86 |
